“And” between values parts separate entries of the source, which are not always exact repeats. Equal entries are not always repeated.
Assays:
[1] = system: PKGIα (analogue-sensitive C42S/M438G), cGMP-activated; experiment: Chemical genetic phosphoproteomic screen, cGMP-activated PKGIα C42S/M438G versus unactivated control; format: biochemical, human PKGIα; substrates in rat heart homogenate; details: n=4
Text: (§1) We employed a chemical genetic method[18] to identify direct substrates of cGMP-activated PKGIα and disulfide bond-activated PKGIα in heart tissue. This method involves mutation of the ATP binding-site of the kinase of interest so that it can accept a ‘bulky' N6-alkylated ATP analogue for example, N6^−phenylethyl ATP. An oxygen atom on the γ phosphate is also replaced with a sulfur atom—giving an N6-alkylated ATPγS analogue—so that the mutant kinase catalyses the transfer of a thiophosphate group (–PO3S^3−) to its substrates instead of a phosphate. The thiophosphate group is nucleophilic, providing a basis for substrates of the analogue-sensitive kinase to be purified by a ‘covalent capture' protocol. LC–MS/MS allows identification of the substrate and localization of the phosphorylation site. Thiophosphorylated proteins can also be detected with a thiophosphate ester-specific antibody. Analogue-sensitive mutants of PKGIα and PKGIα C42S (which cannot form the activating intermolecular disulfide bond) were generated by mutating Met438 in the ATP-binding domain to Gly. This mutation was chosen based on a previous study where an analogue-sensitive mutant of the catalytic subunit of PKA—which shares sequence homology with PKGIα—was engineered. Detailed protocols are given below.
(§2) A pCDNA3 expression vector encoding human FLAG-tagged PKGIα (ref. [41]) underwent site-directed mutagenesis to generate constructs for untagged WT, C42S, M438G and C42S/M438G PKGIα. Mutations were introduced using the QuikChange II Site-Directed Mutagenesis Kit (Agilent) according to the manufacturer's instructions. Expression and purification of the PKGIα mutants was performed according to a published method[42] as follows: suspension FreeStyle 293-F cells (ThermoFisher Scientific) were transfected with the appropriate PKGIα construct using the stable cationic polymer polyethyleneimine (PEI) as a transfection reagent. After ∼72 h cells were harvested by centrifugation (400g; room temperature; 15 min), re-suspended in ice cold lysis buffer (25 mM sodium phosphate buffer pH 6.8; 10 mM ethylenediaminetetraacetic acid (EDTA); 100 mM NaCl; 10 mM benzamidine hydrochloride; and 10 mM dithiothreitol (DTT)) and frozen in liquid N2. Cells were lysed by three freeze (liquid N2)-thaw (37 °C) cycles and the lysate was clarified by centrifugation at 140,000g and 4 °C for 30 min. The soluble protein fraction was loaded onto a pre-equilibrated 8-(2-aminoethylamino)adenosine-3′, 5′-cyclic monophosphate column (8-AEA-cAMP agarose; BioLog, Germany) followed by washing with 20 column volumes of lysis buffer. The column was further washed with lysis buffer +3 M NaCl (5 column volumes) and PKGIα was then eluted with lysis buffer +150 mM NaCl and 500 μM cAMP. Removal of cAMP and buffer exchange was achieved by extensive dialysis against 25 mM sodium phosphate buffer pH 6.8, 2 mM EDTA and 100 mM NaCl. For ITC analysis, WT PKGIα was incubated with 10 mM lipoic acid for 2 h on ice to obtain ∼100% disulfide dimer (confirmed by SDS-PAGE). Oxidized WT or C42S PKGIα was further purified by size exclusion chromatography using a HiLoad 16/600 Superdex 200 pg column (GE Healthcare) with 50 mM sodium phosphate buffer pH 7.4 and 100 mM NaCl. Proteins were concentrated using Amicon Ultra centrifugal filter devices (Merck Millipore). DTT was absent in storage buffers so that the activating disulfide bond would not be reduced and so that the PKGIα M438G mutant would be oxidized to disulfide dimer in the presence of air (confirmed by SDS-PAGE). Protein concentration was determined by Pierce BCA assay (ThermoFisher) and enzyme activity was confirmed using the Omnia kinase assay kit (ThermoFisher).
(§3) Male Wistar rats (9–10 weeks; body weight 300–330 g) were euthanized by intraperitoneal injection of sodium pentobarbitone (200 mg kg^−1) with heparin (500 USP units). […]

[2] = system: PKGIα (analogue-sensitive M438G), disulfide-activated; experiment: Chemical genetic phosphoproteomic screen, disulfide-activated PKGIα M438G versus unactivated control; format: biochemical, human PKGIα; substrates in rat heart homogenate; details: for Log2 fold change in phosphorylation, Disulfide versus control: n=4
Text: as §1, §2, §3

[3] = PKGIα C42S/M438G + 100 μM cGMP vs basal, 1 h, 30 °C, pH 7.5, rat heart homogenate, label-free LC–MS/MS, * P<0.05 Dunnett: all values except phospholamban S16
[4] = disulfide-activated PKGIα M438G vs basal, 1 h, 30 °C, pH 7.5, rat heart homogenate, label-free LC–MS/MS, * P<0.05 Dunnett: only phospholamban S16

B1: Histone H1.4: PKGIα substrate, phospho site S36 (protein, UniProt P43274 2-219, looked up)
Histone H1.4: SETAPAAPAAPAPAEKTPVKKKARKAAGGAKRKTSGPPVSELITKAVAASKERSGVSLAALKKALAAAGYDVEKNNSRIKLGLKSLVSKGTLVQTKGTGASGSFKLNKKAASGEAKPKAKRAGAAKAKKPAGAAKKPKKAAGTATAKKSTKKTPKKAKKPAAAAGAKKAKSPKKAKATKAKKAPKSPAKAKTVKPKAAKPKTSKPKAAKPKKTAAKKK
modifications: phosphorylated at S36
Log2 fold change in phosphorylation, cGMP versus control [1, 3]: 1.30* | Log2 fold change in phosphorylation, Disulfide versus control [2, 4]: 0.48

B2: Heat shock protein beta-6: PKGIα substrate, phospho site S16 (protein, UniProt P97541 1-162, looked up)
Heat shock protein beta-6: MEIRVPVQPSWLRRASAPLPGFSTPGRLFDQRFGEGLLEAELASLCPAAIAPYYLRAPSVALPTAQVPTDPGYFSVLLDVKHFSPEEISVKVVGDHVEVHARHEERPDEHGFIAREFHRRYRLPPGVDPAAVTSALSPEGVLSIQATPASAQASLPSPPAAK
modifications: phosphorylated at S16
Log2 fold change in phosphorylation, cGMP versus control [1, 3]: 2.61* | Log2 fold change in phosphorylation, Disulfide versus control [2, 4]: 1.25

B3: G-protein-signaling modulator 1: PKGIα substrate, phospho site S567 (protein, UniProt Q9R080 1-673, looked up)
G-protein-signaling modulator …: MASPAPPAAEELPGPAARRLYSRMEASCLELALEGERLCKAGDFKAGVAFFEAAVQVGTEDLKTLSAIYSQLGNAYFYLKEYARALQFHKHDLLLARTIGDRMGEAKASGNLGNTLKVLGRFDEAIVCCQRHLDIAQEQGDKVGEARALYNIGNVYHAKGKQLSWNAAQDPGHLPPDVRETLHRASEFYERNLSLVKELGDRAAQGRAYGNLGNTHYLLGNFTEATTFHKERLAIAKEFGDKAAERRAYSNLGNAHIFLGRFDVAAEHYKKTLQLSRQIRDQAVEAQACYSLGNTYTLLQDYERAAEYHLRHLVIAQELADRVGEGRACWSLGNAYVSMGSPAQALTFAKKHLQISQEIGDRNGELTARMNIAHLQLALGRLTSPAAAEKPDLAGYEAQGARPKRTQRLSAETWDLLRLPLDREQNGETHHTGDWRGPSRDSLPLPMRSRKYQEGPDAIERRPREGSHSPLDSADVRVQVPRTGIPRAPSSDEECFFDLLSKFQSSRMDDQRCPLEEGQAGAAEATAAPTLEERAAQPSVTASPQTEEFFDLIASSQSRRLDDQRASVGSLPGLRITLNNVGHLRGDGDPQEPGDEFFNMLIKYQSSRIDDQRCPPPDVLPRGPTMPDEDFFSLIQRVQAKRMDEQRVDLAGSPDQEASGLPDPRQQCPPGAS
modifications: phosphorylated at S567
Log2 fold change in phosphorylation, cGMP versus control [1, 3]: 2.93* | Log2 fold change in phosphorylation, Disulfide versus control [2, 4]: 1.04

B4: CLIP-associating protein 2: PKGIα substrate, phospho site S436 (protein, UniProt Q99JD4 1-1286, looked up)
CLIP-associating protein 2: MRRLICKRICDYKSFDDEESVDGNRPSSAASAFKVPAPKTPGNPVNSARKPGSAGGPKAGGTSKEGGAGAVDEDDFIKAFTDVPSIQIYSSRELEETLNKIREILSDDKHDWDQRANALKKIRSLLVAGAAQYDCFFQHLRLLDGALKLSAKDLRSQVVREACITVAHLSTVLGNKFDHGAEAIVPTLFNLVPNSAKVMATSGCAAIRFIIRHTHVPRLIPLITSNCTSKSVPVRRRSFEFLDLLLQEWQTHSLERHAAVLVETIKKGIHDADAEARVEARKTYMGLRNHFPGEAETLYNSLEPSYQKSLQTYLKSSGSVASLPQSDRSSSSSQESLNRPFSSKWSTANPSAVAGRVSVGGSKASPLPGSLQRSRSDIDVNAAAGAKAHHAAGQAVRSGRLGAGALNPGSYASLEDTSDKMDGTASEDGRVRAKLSTPLVAVGNAKTDSRGRSRTKMVSQSQPGSRSGSPGRVLTTTALSTVSSGAQRILVNSASAQKRSKIPRSQGCSREASPSRLSVARSSRIPRPSVSQGCSREASRESSRDTSPVRSFQPLGPGYGMSQSSRLSSSVSAMRVLNTGSDVEEAVADALLLGDIRTKKKPARRRYESYGMHSDDDANSDASSACSERSYSSRNGSIPTYMRQTEDVAEVLNRCASSNWSERKEGLLGLQNLLKNQRTLSRVELKRLCEIFTRMFADPHGKVFSMFLETLVDFIQVHKDDLQDWLFVLLTQLLKKMGADLLGSVQAKVQKALDVTRESFPNDLQFNILMRFTVDQTQTPSLKVKVAILKYIETLAKQMDPGDFINSSETRLAVSRVITWTTEPKSSDVRKAAQSVLISLFELNTPEFTMLLGALPKTFQDGATKLLHNHLRNTGNGTQSSMGSPLTRPTPRSPANWSSPLTSPTNTSQNTLSPSAFDYDTENMNSEDIYSSLRGVTEAIQNFSFRSQEDMSEPLKRDPKKEDGDTVCSGPGMSDPRAGGDAPDSSQPALDNKASLLHSVPLHSSPRSRDYNPYNYSDSISPFNKSALKEAMFDDDADQFPDDLSLDHSDLVAELLKELSNHNERIEERKIALYELMKLTQEESFSVWDEHFKTILLLLLETLGDKEPTIRALALKVLKEILRHQPARFKNYAELTVMKTLEAHKDPHKEVVRSAEEAASVLATSISPEQCIKVLCPIIQTADYPINLAAIKMQTKVIERVSKETLNLLLPEIMPGLIQGYDNSESSVRKACVFCLVAVHAVIGDELKPHLSQLTGSKMKLLNLYIKRAQTGSAGADPTTDVSGQS
modifications: phosphorylated at S436
Log2 fold change in phosphorylation, cGMP versus control [1, 3]: 1.79* | Log2 fold change in phosphorylation, Disulfide versus control [2, 4]: 0.86

B5: Cytoplasmic dynein 1 light intermediate chain 1: PKGIα substrate, phospho sites T408 (r11) and S412 (r12) (protein, UniProt Q9QXU8 1-523, looked up)
Cytoplasmic dynein 1 light …: MAAVGRVGSFGSSPPGLASTYASGPLANELASGSGGPAAGDDEDGQNLWSRILREVSTRSRSKLPTGKNVLLLGEDGAGKTSLIRRIQGIEEYKKGRGLEYLYLNVHDEDRDDQTRCNVWILDGDLYHKGLLKFSLDALSLRDTLVMLVVDMSKPWTALDSLQKWASVVREHVDKLKIPPEEMKEMEQKLIRDFQEYVEPGEDFPASPQRRATAAQEDRDDSVVLPLGADTLTHNLGLPVLVVCTKCDAISVLEKEHDYRDEHFDFIQSHIRKFCLQYGAALIYTSVKENKNIDLVYKYIVQKLYGFPYKIPAVVVEKDAVFIPAGWDNDKKIGILHENFQTLKIEDNFEDIITKPPVRKFVHEKEIMAEDDQVFLMKLQSLLAKQPPTAAGRPVDASPRVPGGSPRTPNRSVSSNVASVSPIPAGSKKIDPNMKAGATSEGVLANFFNSLLSKKTGSPGGPGVGGSPGGGAAGASTSLPPSAKKSGQKPVLSDVHAELDRITRKPASVSPTTPPSPTEGEAS
modifications: phosphorylated at T408 and S412
Log2 fold change in phosphorylation, cGMP versus control [1, 3]: 3.76* | Log2 fold change in phosphorylation, cGMP versus control ([1]; phospho site S412 (second site of this protein), * P<0.05): 4.15* | Log2 fold change in phosphorylation, Disulfide versus control [2, 4]: 1.95 | Log2 fold change in phosphorylation, Disulfide versus control ([2]; phospho site S412 (second site of this protein), not significant): 1.66

B6: Lyrm1 pS110 (protein, UniProt B2RYU8 1-122, looked up)
LYR motif-containing protein 1: MTAASRQEVLGLYRSFFRLARKWQAASGQMEDTIKEKQYILNEARTLFQKNKNLTDPDLIKQCIDECTARIEIGLHYQIPYPRPIHLPPMGLTPRRGRGLQTQEKLRKFSKPLYLKSHDEVS
modifications: phosphorylated at S110
log2 fold change Disulfide vs Control ([2]; control = PKGIα C42S/M438G): 0.4439 and 0.5384

From article PMC5095173, “Disulfide-activated protein kinase G Iα regulates cardiac diastolic relaxation and fine-tunes the Frank–Starling response” (Nature Communications, 2016)
